Assay results from PMC9719539, “Single-molecule characterization of subtype-specific β1 integrin mechanics” (Nature Communications, 2022).

Tested on: BJ-5ta cells
Test: Percentage of spread cells / cell spreading on TGT surfaces
Type: cell-based, human
Conditions: 1 h after seeding
Procedure: Glass coverslips were densely PEGylated to minimize non-specific interactions such as the binding of cell-secreted extracellular matrix proteins. Coverslips cleaned by piranha etching solution (a 3:1 mixture of sulfuric acid and hydrogen peroxide) were incubated in silanization solution (UCT, 1760-24-3; 2% aminosilane and 5% acetic acid in methanol) for 30 min and reacted with a mixture of Polyethylene glycol (PEG) with and without biotin (1:19, 150 mg/ml; Laysan Bio, Biotin-PEG-SVA-5000 and MPEG-SVA-5000) for 4 h. Surfaces were washed thoroughly and dried using nitrogen gas after each step. A 3D-printed dish (PLA) or a silicon gasket (Grace Bio Labs, 103280) was attached to the coverslip to form a dish. Neutravidin (Thermo Fisher scientific, 31000; 0.4 mg/ml) was added to the dish for 10 min and washed out thoroughly. […]
The cells were gently harvested by washing in PBS for 1 min, incubating with 0.05% trypsin for 3 min, and then neutralizing with cell culture medium (FBS 10%). […] A Nikon Eclipse Ti microscope equipped with Xenon arc lamp, Nikon perfect focus system, custom total internal reflection fluorescence microscopy (TIRFM) module, and custom reflection interference contrast microscopy (RICM) module was driven by Elements software. […] Images were recorded using an electron-multiplying charge-coupled device (EMCCD; Andor iXon 888). […]

B1: vitronectin: physiologic macromolecular ligand with RGD motif (protein, UniProt P04004 20-478, looked up)
Vitronectin: DQESCKGRCTEGFNVDKKCQCDELCSYYQSCCTDYTAECKPQVTRGDVFTMPEDEYTVYDDGEEKNNATVHEQVGGPSLTSDLQAQSKGNPEQTPVLKPEEEAPAPEVGASKPEGIDSRPETLHPGRPQPPAEEELCSGKPFDAFTDLKNGSLFAFRGQYCYELDEKAVRPGYPKLIRDVWGIEGPIDAAFTRINCQGKTYLFKGSQYWRFEDGVLDPDYPRNISDGFDGIPDNVDAALALPAHSYSGRERVYFFKGKQYWEYQFQHQPSQEECEGSSLSAVFEHFAMMQRDSWEDIFELLFWGRTSAGTRQPQFISRDWHGVPGQVDAAMAGRIYISGMAPRPSLAKKQRFRHRNRKGYRSQRGHSRGRNQNSRRPSRATWLSLFSSEESNLGANNYDDYRMDWLVPATCEPIQSVFFFSGDKYYRVNLRTRRVDTVDPPYPRSIAQYWLGCPAPGHL
In the case of B1, the “cell morphology (in words)” value is reported as “elongated with irregular lamellipodia”.
